{
  "source": "patent US9956303B2",
  "about": "“Anti-met therapy for previously diagnosed cancer patients” (GE HEALTHCARE LIMITED, priority 2011, dated 2018)",
  "origin": "cited, not measured here",
  "key": {"[1]": {"target": "T1, c-Met (Homo sapiens, UniProt P08581)", "T1 sequence (P08581 25-1390)": "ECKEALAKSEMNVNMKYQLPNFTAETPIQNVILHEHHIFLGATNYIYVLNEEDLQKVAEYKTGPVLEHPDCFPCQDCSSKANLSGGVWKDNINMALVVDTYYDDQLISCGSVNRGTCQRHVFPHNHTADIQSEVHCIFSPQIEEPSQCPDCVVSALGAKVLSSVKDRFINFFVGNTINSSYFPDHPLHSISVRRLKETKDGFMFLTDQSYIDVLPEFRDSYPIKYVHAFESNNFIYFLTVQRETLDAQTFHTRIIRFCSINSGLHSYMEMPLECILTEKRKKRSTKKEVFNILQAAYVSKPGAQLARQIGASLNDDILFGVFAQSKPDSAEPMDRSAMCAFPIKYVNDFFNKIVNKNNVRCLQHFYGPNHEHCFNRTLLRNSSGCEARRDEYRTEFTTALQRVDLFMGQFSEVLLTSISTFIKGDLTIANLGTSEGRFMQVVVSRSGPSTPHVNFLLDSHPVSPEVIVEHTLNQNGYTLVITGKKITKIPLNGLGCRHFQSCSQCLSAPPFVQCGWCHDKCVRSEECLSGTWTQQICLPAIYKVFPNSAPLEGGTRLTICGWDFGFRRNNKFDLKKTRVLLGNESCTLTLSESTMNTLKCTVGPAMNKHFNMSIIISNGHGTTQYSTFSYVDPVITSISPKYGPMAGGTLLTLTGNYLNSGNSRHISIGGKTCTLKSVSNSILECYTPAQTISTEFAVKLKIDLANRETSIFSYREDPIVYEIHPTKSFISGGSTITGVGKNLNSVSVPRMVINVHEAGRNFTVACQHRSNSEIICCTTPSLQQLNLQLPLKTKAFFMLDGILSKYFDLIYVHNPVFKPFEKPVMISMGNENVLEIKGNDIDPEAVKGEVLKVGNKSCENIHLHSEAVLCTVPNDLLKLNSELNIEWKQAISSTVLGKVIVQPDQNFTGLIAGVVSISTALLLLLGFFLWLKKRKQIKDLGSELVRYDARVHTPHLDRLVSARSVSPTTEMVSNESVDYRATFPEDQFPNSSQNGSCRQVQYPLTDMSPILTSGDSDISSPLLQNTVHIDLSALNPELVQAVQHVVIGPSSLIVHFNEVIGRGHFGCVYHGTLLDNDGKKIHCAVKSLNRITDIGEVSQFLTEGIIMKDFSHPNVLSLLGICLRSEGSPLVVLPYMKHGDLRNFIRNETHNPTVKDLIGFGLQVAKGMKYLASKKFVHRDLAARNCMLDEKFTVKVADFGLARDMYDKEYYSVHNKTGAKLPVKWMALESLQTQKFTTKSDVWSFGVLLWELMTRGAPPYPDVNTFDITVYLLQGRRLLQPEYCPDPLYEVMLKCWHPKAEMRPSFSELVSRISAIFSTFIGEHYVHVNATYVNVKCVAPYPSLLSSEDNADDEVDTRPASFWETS", "design": "host or cells: NSCLC patients' tumours", "settings": "for median overall-survival: analysed by retrospective IHC of archive biopsy samples, p=0.002"}, "[2]": {"settings": "in vivo"}, "[3]": {"target": "T1, c-Met", "settings": "mouse, in vivo"}, "[4]": {"target": "T2, HGF (Homo sapiens, UniProt P14210)", "T2 construct": "host or cells: patients", "T2 sequence (P14210 32-728)": "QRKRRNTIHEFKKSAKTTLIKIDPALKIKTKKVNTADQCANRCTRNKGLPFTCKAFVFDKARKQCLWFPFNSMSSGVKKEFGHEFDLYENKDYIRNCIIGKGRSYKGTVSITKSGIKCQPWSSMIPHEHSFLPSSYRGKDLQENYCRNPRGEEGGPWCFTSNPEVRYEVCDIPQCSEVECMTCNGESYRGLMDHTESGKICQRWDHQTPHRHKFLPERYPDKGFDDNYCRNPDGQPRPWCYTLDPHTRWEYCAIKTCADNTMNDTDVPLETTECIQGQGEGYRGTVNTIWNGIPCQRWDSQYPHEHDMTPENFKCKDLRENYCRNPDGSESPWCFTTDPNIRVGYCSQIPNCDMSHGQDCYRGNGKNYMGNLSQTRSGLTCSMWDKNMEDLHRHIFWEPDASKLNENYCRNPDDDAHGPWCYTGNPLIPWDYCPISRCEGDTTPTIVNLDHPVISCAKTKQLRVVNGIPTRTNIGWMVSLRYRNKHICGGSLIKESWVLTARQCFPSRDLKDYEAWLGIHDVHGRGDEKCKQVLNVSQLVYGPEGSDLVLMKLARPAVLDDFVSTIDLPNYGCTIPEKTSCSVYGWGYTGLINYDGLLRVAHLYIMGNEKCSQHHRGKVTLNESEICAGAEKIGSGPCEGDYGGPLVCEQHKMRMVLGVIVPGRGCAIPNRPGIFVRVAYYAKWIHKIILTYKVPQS", "settings": "combination with ECX"}},
  "data": [
    {"molecule": "C#Cc1cccc(Nc2ncnc3cc(OCCOC)c(OCCOC)cc23)c1", "note": "[Erlotinib, reference compound]", "values": [
      {"measurement": "median overall-survival", "setting": "[1]", "result": 3.8, "unit": "months"}
    ]},
    {"molecule": "MetMAb: a monoclonal antibody blocking c-Met (Roche)", "values": [
      {"measurement": "combined elimination half-life", "setting": "[2]", "result": "190 to 288", "unit": "h"},
      {"measurement": "outcome, low c-Met expression", "setting": "[1]; MetMAb in combination with Erlotinib compared to Erlotinib alone", "result": "worse outcome"},
      {"measurement": "median overall-survival", "setting": "[1]", "result": 12.6, "unit": "months"},
      {"measurement": "outcome, patient group as a whole", "setting": "[1]; patients with high and low c-Met expression, MetMAb+Erlotinib vs placebo+Erlotinib", "result": "no differences between the two treatments"}
    ]},
    {"molecule": "MetMab™ labelled with ^76Br or ^89Zr: anti-c-Met antibody (MetMab) labelled with 76Br or 89Zr for molecular imaging of c-Met", "values": [
      {"measurement": "tumour uptake and clearance", "setting": "[3]", "result": "rapid tumour uptake and slow clearance"}
    ]},
    {"molecule": "rilotumumab: HGF antibody (Amgen)", "values": [
      {"measurement": "median overall survival vs placebo and ECX", "setting": "[4]; c-Met high tumours (>50% tumour cells positive)", "result": "improved median overall survival"},
      {"measurement": "overall survival vs placebo and ECX", "setting": "[4]; c-Met low tumours (≤50% positive)", "result": "trend toward unfavourable overall survival"}
    ]}
  ]
}
